The record followed here is publication PMC3326303.

For data set [1], the target named is T1, Msi1 RBD1 (Mus musculus, UniProt Q61474 20-103). Description: competition.
The target in data set [2] is T1, Msi1 RBD1. Description: NMR HSQC titration.
The target in another data set is Msi1 RBD1-2 (Mus musculus, UniProt Q61474 20-191). Description: NMR HSQC titration.
For data set [3], the target named is T1, Msi1 RBD1. Kind of data set: NMR HSQC titration. The source holds these as a separate data set.
Another data set addresses Msi1 RBD2 (Mus musculus, UniProt Q61474 109-191). Kind of data set: NMR HSQC titration.

Read-outs that look alike come from different tables or passages of the source.

T1 sequence (Q61474 20-103): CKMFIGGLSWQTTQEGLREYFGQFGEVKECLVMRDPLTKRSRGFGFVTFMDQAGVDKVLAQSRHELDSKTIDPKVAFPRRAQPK
Sequence of Msi1 RBD2 (Q61474 109-191): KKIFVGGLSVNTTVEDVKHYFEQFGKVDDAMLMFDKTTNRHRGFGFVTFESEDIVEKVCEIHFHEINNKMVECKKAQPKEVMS
Sequence of Msi1 RBD1-2 (Q61474 20-191): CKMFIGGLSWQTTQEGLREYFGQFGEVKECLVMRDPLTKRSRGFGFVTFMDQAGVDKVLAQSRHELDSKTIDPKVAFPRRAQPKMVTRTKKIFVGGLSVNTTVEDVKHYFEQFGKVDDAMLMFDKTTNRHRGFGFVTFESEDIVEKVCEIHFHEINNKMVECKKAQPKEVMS

As to GUAGUU (ssRNA) [numb6-4], the binding signal in the data set with Msi1 RBD1 [1] was ~1 ratio of complex signal to numb6-2 complex.

Consider GUAGU (ssRNA) [numb5], for which, in the data set with Msi1 RBD1 [2], the binding result is recorded as “binds”.

In the case of UAGGUAGUAGUUUUA (ssRNA) [numb15], the binding result with Msi1 RBD1-2 was “binds”.

Take GGUAGU (ssRNA) [numb6-2]: the binding result with Msi1 RBD1 [3] and with Msi1 RBD2 was “binds” each time.

As to UAGGUA (ssRNA) [numb6-1], the binding result with Msi1 RBD2 was “binds”.
